# Source: the supplement of paper PMC9170038
# Experiments:
# MS2 coat protein [1] = assay: apparent KD of MS2 coat protein, switch OFF state (with FMN for OFF switches, without FMN for ON switches); designed switch direction (-1 OFF switch, 1 ON switch): -1; higher = weaker reporter binding; conditions: FMN input: 0 or 200 uM; Eterna round: R93 (includes R88 designs)
# Procedure, shortened: (§1)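 Illumina sequencing clusters were used for on-chip transcription of designed RNA switches. Titration with SNAP-549-labelled MS2 coat protein followed, in twofold steps from 0.7 or 1.5 nM to 3 µM in 100 mM Tris-HCl pH 7.5, 80 mM KCl, 4 mM MgCl2, without or with constant ligand. Apparent KD is each design's median of fits to normalised cluster binding curves.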
# MS2 coat protein [2] = assay: apparent KD of MS2 coat protein, switch ON state; designed switch direction (-1 OFF switch, 1 ON switch): -1; higher = weaker reporter binding; conditions: FMN input: 0 or 200 uM; Eterna round: R93 (includes R88 designs)
# Procedure, shortened: as §1
Sequence,apparent KD of MS2 coat protein (MS2 coat protein [1]) [nM],apparent KD of MS2 coat protein (MS2 coat protein [2]) [nM]
AUGUACCUAGGAUAUACAUGAGGAUCACCCAUGUACUGGGAGCAAUCAAGUUAAUAUUGUAGAAGGAGGUGAAA [JR_Exc003_Sub315],58.6,20.1
AUGUAGGGAGGAUAUACAUAGAUACAGAUUCAUGUGGAACUACAUGAGGAUCACCCAUGUAGAAGGCCCUAAAA [Mat - Same state - Mayanna Mod - D125],117,27.4
AUUAUGUCAGGAUAUCAGUAGUAAAAAAAAAAAAUUACUACUGAGAAGGGACAUGAGGAUCACCCAUGUCAAAA [EX4 308: Super Stable 8],34,39
CAAAGGUGAGGAUAUACAAAACUAUGACGAAAGUCAUAAAAACAUGAGGAUCACCCAUGUAGAAGGCACCACAA [E2 64% 2],23.7,31.6
CACGUACAUGAGGAUCACCCAUGUUAGGAUAUGCCGGGUAAGAGAAAACAAAAAAUCAGCAGAAGGAACGAAAC [Bilbo Confounded 18 - Jieux - Exclusion 1],28.5,28.2
CAGUACUGAGGAUAUACAUGAGGAUCACCCAUGUAUCAAAGCUAGGAAACUAGCACAUGUAGAAGGCAGUACUG [Ex3: 823],132,25.7
CAGUACUGAGGAUAUACAUGAGGAUCACCCAUGUGGUCAAGCUAGGAAACUAGCAAAUGUAGAAGGCAGUACUG [Ex3: 812],35.6,80.9
CCAGAUGCAGGAUAUACAUGAGGAUCACCCAUGUGGCACACACCCACCCACAGCACCCGUAGAAGGGCAGCACG [Halfast on Cytosine - Jieux - Exclusion 3],25.9,27
CCUGGCUUAGGAUAUACAGGAACCGGGAACCCGGAAGUGAAACAUGAGGAUCACCCAUGUAGAAGGAAGAAAGC [Leusanzaus],19.1,23.9
CGUCCACAUGAGGAUCACCCAUGUUAGGAUAUCUAUACUAAAUACAAAACCCAAGUCAAGAGAAGGAGCAGGGC [Teteeresve],12,13.9
CGUUGGCGAGGAUAUACAUGAGGAUCACCCAUGUGAGAGAAAAAAGUGAGAAAGAAAAGUAGAAGGCGCUGACC [salish99-ex3-13],162,45.1
CUCAAGUCAGGAUAUAUAAGAAAAGAAGAGAAAGAAAAGAAAUAGAAGGGACAUGAGGAUCACCCAUGUAAGAA [EteRNA is fun!],36.9,34.5
CUCAAGUCAGGAUAUUAAAGAAAAGAAGAGAAAGAAAAGAAUAAGAAGGGACAUGAGGAUCACCCAUGUAAGAA [EteRNA is fun!],30.9,57.3
CUCAAGUUAGGAUAUGAAAGAAAAGAAGAGAAAGAAAAGAAUCAGAAGGAACAUGAGGAUCACCCAUGUAAGAA [EteRNA is fun!],19.5,29.7
CUCAUGUCAGGAUAUCAGUAGUAAAAAAAAAAAAUUACUACUGAGAAGGGACAUGAGGAUCACCCAUGUACCUU [EX4 302: Super Stable 2],29.1,25.4
CUCAUGUCAGGAUAUCAGUAGUAAAAAAAUAAAAUUACUACUGAGAAGGGACAUGAGGAUCACCCAUGUCAAAA [EX4 363: Super Stable 63],19.8,20.7
CUCAUGUCAGGAUAUCCAUGAAAUGAAGUGAAAGAAAAGAAGGAGAAGGGACAUGAGGAUCACCCAUGUUAGAA [EteRNA is fun!],17.1,34.1
CUCAUGUUAGGAUAUAUAUGAAAUGAAGUGAAAGAAAAGAAAUAGAAGGAACAUGAGGAUCACCCAUGUUAGAA [EteRNA is fun!],32.6,51
CUCUAGUCAGGAUAUGCAAGAAAAGAAGAGAAAGAAAAGAAGCAGAAGGGACAUGAGGAUCACCCAUGUAAGAA [EteRNA is fun!],83.4,51.3
CUCUAGUGAGGAUAUCCAAGAAAAGAAGAGAAAGAAAAGAAGGAGAAGGCACAUGAGGAUCACCCAUGUAAGAA [EteRNA is fun!],35.8,44.1
CUCUUGUCAGGAUAUCCAAGAAAAGAAAAGAAAGAAAAGAAGGAGAAGGGACAUGAGGAUCACCCAUGUAAGAA [EteRNA is fun!],113,72.3
CUCUUGUCAGGAUAUUGAAGAAAAGAAAAGAAAGAAAAGAACAAGAAGGGACAUGAGGAUCACCCAUGUAAGAA [EteRNA is fun!],60.7,74.2
CUCUUGUGAGGAUAUCGAAGAAAAGAAAAGAAAGAAAAGAACGAGAAGGCACAUGAGGAUCACCCAUGUAAGAA [EteRNA is fun!],61.8,53.1
GAAAAACAUGAGGAUCACCCAUGUAAGGAUAUGCUAAAAAACGCAAAAAAAGCGAAUAGCAGAAGGUACAAAAA [Mat - Exclusion 1 - Eli mod - D83],33.4,20.6
GAAAACAGAGGAUAUACGGGAUUGACACGAAAAGUGCAAAAACAUGAGGAUCACCCAUGUAGAAGGCUGAAGAA [Meechl MS2... 60% 2],42.5,31.5
GAAAAGGCAGGAUAUGCAAGGAUAUAGAAGGAAAAAAAAAAACAUGAGGAUCACCCAUGUAGAAGGGCCAAAAG [salish99-ex2-10],33.5,57.2
GAAAAGUCAGGAUAUAUGCGAAAAAUAAAAAAAAUAAAAACAUAGAAGGGACAUGAGGAUCACCCAUGUUAAAA [Mat - Exclusion 4 - Mayanna - D134],29.7,41.6
GAAAAGUCAGGAUAUGUACAAAAUAAAAUAAAAAUAAAAGUACAGAAGGGACAUGAGGAUCACCCAUGUAAAAG [Mat - Exclusion 4 - Mayanna - D120],54.2,72.4
GAAAAGUUAGGAUAUACAGAUAAAAAAACGAAAAAAAAUCUGUAGAAGGAACAUGAGGAUCACCCAUGUAAAAG [Mat - Exclusion 4 - Mayanna - D103],30.8,34.7
GAAGAACAUGAGGAUCACCCAUGUCAGGAUAUACAGAAGGGAAUAAUAAAAUCUGGAAGUAGAAGGGACAAGAA [Ex 1 May 46],49.3,32.5
